In the Human Domainome abundance scans (Beltran et al. 2025):

B1: Neutrophil cytosol factor 2, residues 456 to 514; numbered along this chain, P19878 (parent)
chain: LKKGSQVEALFSYEATQPEDLEFQEGDIILVLSKVNEEWLEGECKGKVGIFPKVFVEDC

Variants of: B1
Assay: abundance fitness (aPCA) (normalised: wild type 0, dead -1); higher = more abundant; growth selection in yeast, the domain comes from the species named
Conditions: Homo sapiens

Abundance fitness: each site, then its substitutions
E41: L 0.275; K 0.367; S -0.28; I 0.175; G -0.157; Y 0.47
K53: A -0.246; V -0.536; I -0.865; L -0.749; T -0.707
V35: M -0.081; T -0.808; L -0.096; D -0.588; H -0.806; G -0.613; F -0.264; W -0.019; Y -0.69; C -0.475
F51: N -0.584; W -0.739; C -0.247; S -0.328; I -0.506; E 0.113; L -0.735
V31: C -0.418; K -0.621; T -0.482; Y -0.479; G 0.001
N36: Y -0.754
G49: W -0.137; L -0.42; H -0.893; P -0.722; I -0.427
A15: G -0.152; C -0.362; D -0.73; N -0.853; P -0.005; L -0.827
L10: V -0.609; T -0.528; N -0.226; E -0.667; M 0.116; R 0.046
E37: L -0.645; A -0.42; W -0.279; R -0.22; G -0.277; N 0.241
K3: V -0.033; T -0.094; E -0.067; L -0.337; F -0.153; G -0.714
G42: V -0.748; R -0.952; I -0.473; Y -0.466; N -0.484; A -0.146; F -0.509
V7: W -0.999; D -0.907
C44: E -0.865; F -0.741; M 0.102; Y -0.478; R -0.336; W -0.182
S12: P -0.257; N -0.206; L -0.086; I -0.069; E -0.937; H -0.44
P18: H -0.537; N -0.074; M -0.235; L -0.801; R -0.163; G -0.613; A -0.284
F55: S -0.753; G -0.486; I -0.599; R -0.521; H -0.229; T -0.133; W -0.529; V 0.271; L 0.207; P -0.145
K47: G -0.511; S -0.22; V -0.331; C -0.658; H -0.673; W -0.416; R -0.118
E22: N -0.654; V -0.389; S 0.284; K -0.473
L30: M 0.08; T 1.05; K 0.491; N 0.756; Y 0.079
G26: Y -1.03; L -0.339; I -0.807; D -0.683
W39: F -0.49; D -0.598; L -0.8; I -0.109; A -0.643; T -0.735; S -0.666; R -0.893; Q -0.864; G -0.414
G4: L -0.83; W -0.84
S33: Q -0.111; P -0.554; M -0.677; T -0.289; D 0.4; Y -0.55; K 0.213; C -0.474
Q17: H -0.123; F -0.793; G 0.478; K 0.796; A 0.324; T 0.2; I -0.393; C 0.148; R 0.296; N -0.093
E19: C -0.112; L 0.006; S -0.229; R -0.295; G 0.598; N 0.156; A -0.172; H -0.096; V -0.443; Q -0.216
E43: H -0.314; F -0.324; L -0.487; W -0.435; K -0.235; V -0.654
